According to publication PMC10686828, “DMSOP-cleaving enzymes are diverse and widely distributed in marine microorganisms” (Nature Microbiology, 2023):

What was measured:
[1] = substrate: C[S+](C)(=O)CCC(=O)[O-]; experiment: HPLC of acrylate, initial rates, non-linear fit; format: biochemical, Alcaligenes faecalis; conditions: pH 8, 30 °C
[2] = substrate: C[S+](C)(=O)CCC(=O)[O-]; experiment: HPLC of acrylate, initial rates, non-linear fit; format: biochemical, Candidatus Pelagibacter communis; conditions: pH 8, 30 °C
[3] = substrate: C[S+](C)(=O)CCC(=O)[O-]; experiment: HPLC of DMSO, initial rates, non-linear fit; format: biochemical, Psychrobacter sp.; conditions: pH 8, 30 °C, CoA, ATP, Mg2+ present
[4] = substrate: C[S+](C)(=O)CCC(=O)[O-]; experiment: HPLC of acrylate, initial rates, non-linear fit; format: biochemical, Emiliania huxleyi; conditions: pH 8, 30 °C
[5] = substrate: C[S+](C)(=O)CCC(=O)[O-]; experiment: HPLC of acrylate, initial rates, non-linear fit; format: biochemical, Ruegeria pomeroyi; conditions: pH 8, 30 °C
Text: HPLC of acrylate, initial rates, non-linear fit on DddW | Only the catalytic efficiency of DddW for DMSOP was similar to that for DMSP

B1: A. faecalis DddY (Alcaligenes faecalis) (protein)
chain: AQFQCQDDVKPAAISAEEQKLVDQFWAESLVYLEQYLKALETPTGQCKDSAQATIQTYHSETGKAQTRCIMKYRDMELLAKHLKAVLAEPDKAKACFDPQKNYKEFTLYTPSSQVQQLSATSTWINRPLLTDYYTKMGGAIGAAGLELNENFLAITSRTDTTAHWTRDVSIKGLPTLWSSVGWVPLYAENPAAGSDRFRGGYLYAELMGPWGNLRIKEINGEKVGAEIGMTVQLFNTSYPFHYHHPQETYMTLTKPQCVDQNKYMVMHWDSDQFTQTRSDKGWTVEIDGSKERWKKWFANQDVNKEWLTYFERNAIHAFHALEGCNQTIQNSGLVAVWARSTSQDNEQFTQLCRPASGPDGVKRMRPGQKTVCDVRDWKP
notes: pET-22b, C-terminal His tag, E. coli BL21(DE3); Ni-NTA and gel filtration
Km [1]: 41.0 mM
kcat [1]: 26.5 s⁻¹

B2: DddK (Candidatus Pelagibacter ubique HTCC1062) (protein)
chain: MIFVKNLASVLSQEWSSTEKYPGVRWKFLIDADFDGSSGLSLGFAEIAPGGDLTLHYHSPAEIYVVTNGKGILNKSGKLETIKKGDVVYIAGNAEHALKNNGKETLEFYWIFPTDRFSEVEYFPAKQKSG
notes: pET-22b, C-terminal His tag, E. coli BL21(DE3); Ni-NTA and gel filtration; dimer in asymmetric unit; Mn2+
Km [2]: 24.1 ± 3.4 mM
kcat [2]: 14.8 ± 0.9 s⁻¹

B3: DddX (Psychrobacter sp.) (protein)
chain: LTGQIIEYTIKIQTIYTGNFKHKNGFLKMIERGIAMKKENLKILAKKAQTIAIVGANYRFATRVLLENLDKMDFTGTIYLVNPRYENIDGVRCYQSLLEIEDTIDVVVGLVNPQLMIQVASNASKINAKVLVIPGGGYGESGVEGQNIQNAILERAADSGMRIVGPNCMGYLNMHAQFTPYIGTLHRPLRPIKKGPVSIISQSGSVNDAFIASKLGISKIYSTGNEADVQMHDYLNLLAEDPETSVIILYIEAIRNHLSFLRALDLCSKNKKPVIAIKVGRTIKSAAVANAHSGALAGDYEIEKLFLEGHGVLFVEDIDQAVAVALLLSQPYLPTVNTVAALTVSGGQAGILLDLAEDYGVDFPDFSAVTNYEIASKLPELGGLSNPLDIWGKSSKDFSEVSNICLSSIVKDADIGIITVAIDAPIGQGDHEFDFTSIPAKDLASLRGNSDKPFLYFSHIQTEFDPRVESILDEAGIAVIQGSRNALVACRALFKYKEFLEKNNHTPIYSVEDLSIQKGLKLLHDNEGRKLLDESGFVSPREQVVTSLQEGVDYAESIGYPVVLKAQGLAHKTDVGGVALNIKSAAKLKKAWGKMEHLNSPYYLIQEMVTDGFETILAYRTDMNYGPVVIFGLGGIYTELFNEVVLAVPPITHKKAEQMVKSIPMLWKSIEGYRGNPALDLEALTASIVQMGETAMEKYEEIVEFEINPLSVRVKGVVALDVLASVKTTAAKEADAEEADVKKCSELV
notes: as for B1
Km [3]: 1 ± 0.2 mM

B4: Alma1 (Emiliania huxleyi) (protein)
chain: MGNCTSHPHHEPQVHFDTVDGMATVKAFAGIRQVTMGVLRIDYEYQTNLGDILDPRSFDFRIISATAEGLTFAKAKAGDKLDATGKELLERAVRQLIDNGADFIVGDCGFLVYWQVMVRDYAQDYAQKKYGRKCPVMMSSLVLALPLLATIPSGGQIGILTASEKSLQAVQKKLPIVIEDHQKEDGGQRSRSVPAAEDPSGIMINFSDPRFKVVGLDEVKDFKHALDAQGADAVNDRRDIAVQIAAYCQKVQEKNPQIAAWLIECTEAGGFAWAIKVGTGLPVWDPITLGRFLSLGFTANVPNVALTLGQHGENPLDPSATTAGKGRCTGEEPGQIHALGAEFQAIREGTL
notes: as for B1
Km [4]: 8.8 ± 1.1 mM
kcat [4]: 0.2 ± 0.01 s⁻¹

B5: DddW (Ruegeria pomeroyi DSS-3) (protein)
chain: MTAMLDSFATDLTAATSLHQPGNLPHPPHAIDAENVPLSGGTDPTYGEVRWRTLINGTEAAPRDMVLGIAEFGPGHQLRPHRHTPPEFYLGLEGSGIVTIDGVPHEIRAGVALYIPGDAEHGTVAGPEGLRFAYGFASASFEAIEYRFTASA
notes: pET-22b, C-terminal His tag, E. coli BL21(DE3)
Km [5]: 11.2 ± 1.6 mM
kcat [5]: 26.7 ± 3.9 s⁻¹
